Target: LC3 (microtubule-associated protein 1 light chain 3), endogenous (mouse (endogenous in mouse brain and cultured mouse neurons)) (UniProt Q91VR7)
Assay: proximity ligation; cultured mouse cortical and cerebellar neurons (wild-type, L1_(687) and L1_(858–863) mutant), without or with L1 antibody 557 (50 µg/mL, 2 h) and without or with tat-LIRWT peptide; fixed, Duolink PLA with mouse L1 antibody C-2 and rabbit LC3 antibody; red spots per cell

full-length L1 (neural cell adhesion molecule L1) (from UniProt P11627 20-1260) (natural protein)
fold increase of L1/LC3 proximity ligation spots with L1 antibody 557 against unstimulated neurons: 4 fold
